We go through one substance from patent publication US20210275586A1.

The experiment concerns the target CD20 antigen on CD20 positive Jeko-1 cells (human) (UniProt P11836). The experiment is described as follows: flow cytometry on CD20+ Jeko-1 cells, secondary staining with anti-Biotin APC.
UniProt P11836, sequence (P11836 whole entry): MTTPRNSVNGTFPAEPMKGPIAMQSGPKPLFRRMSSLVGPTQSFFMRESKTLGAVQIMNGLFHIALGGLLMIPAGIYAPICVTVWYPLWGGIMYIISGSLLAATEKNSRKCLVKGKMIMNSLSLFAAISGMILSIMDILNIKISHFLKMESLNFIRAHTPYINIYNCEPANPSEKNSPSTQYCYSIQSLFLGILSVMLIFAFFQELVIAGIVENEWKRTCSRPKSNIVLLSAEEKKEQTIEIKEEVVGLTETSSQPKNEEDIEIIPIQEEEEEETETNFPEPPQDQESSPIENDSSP

For the substance “biotin-crosslinker conjugated anti-CD20 FAb (Rtx Fab MS2)”, the lowest concentration at which binding was detected was found to be 0.1 µg/mL.
